# Reference: patent US8492099B2, “Method of measuring enzymatic activity of adsorbed allergenic enzyme” (Alk-Abello A/S, priority 2005, dated 2013)
# T1: papain (Carica papaya, UniProt P00784)
# T1 sequence (P00784 134-345): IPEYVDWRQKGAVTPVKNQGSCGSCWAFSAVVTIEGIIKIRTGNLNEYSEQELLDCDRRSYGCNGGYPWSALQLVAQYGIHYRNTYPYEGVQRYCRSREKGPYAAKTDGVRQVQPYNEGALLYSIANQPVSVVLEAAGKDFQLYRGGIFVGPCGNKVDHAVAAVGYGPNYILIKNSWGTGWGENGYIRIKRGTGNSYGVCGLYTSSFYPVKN
# Key:
# [1] = Quenching of AMC fluorescence by aluminium hydroxide; type: physicochemical; conditions: 1 μM AMC, during the time of the assay
# Description: This AMC concentration is equivalent to the enzymatic assay AMC concentration generated by papain and Der p 1.
# papain = target: T1, papain; conditions: 12.5 nM E-64, papain 5 nM
# Method: Stock solutions of 1M DTT and 100 mM EDTA were made in the beginning of the experimental period, frozen at −20° C., and used through the entire project period. Each day a new buffer was made containing the reducing agent DTT and EDTA from the stock solutions. […] DTT is continuously oxidized by the oxygen in the air and therefore a new buffer must be made each day. […] The microtiter plate was opaque to avoid cross contamination of emitted fluorescence between wells. The substrate was diluted to the final concentration in the newly made buffer containing DTT and EDTA and transferred to the microtiter plate. The enzyme was diluted in the same buffer and incubated 10 min in the case of papain and 20 min in the case of Der p 1, for their activation. Mixing, transferring and incubation were carried out at room temperature. After incubation the enzyme solution was transferred to the microtiter plate and the measurements were initiated. The measurements were carried out for 10 min with a total of 36 measurements for each well and automatic mixture between each measurement.
# EDTA was added at 1 mM, and DTT at 5 mM final concentrations.
# [2] = test system: IgE from sera of HDM allergic patients; assay: IgE inhibition assay (ADVIA centaur); type: binding, human
# Method: This assay evaluates the capacity that an allergen has to bind IgE from sera of patients allergic to that allergen source.
# IgE inhibition experiments were performed on an ADVIA centaur instrument. Serial dilutions (performed with the TECAN (P-05-07F294)) of the inhibitor (Antigen in solution or antigen gel adjuvant vaccine) were mixed with a fixed amount of biotinylated antigen and further incubated with a solid phase absorbed IgE. The amount of biotinylated allergen bound to the solid phase was estimated as the light emitted after incubation with streptavidin labelled with acridinium ester. The raw data was processed in Excel and transferred to GraphPad Prism v. 4.0 for the final analysis (curve fitting, plotting and statistical comparisons). The data was fitted to a four parameter logistic function:
# After the adsorption the solution was centrifuged for 5 minutes at 13,000 rpm. […] A Der p extract sample was prepared for incubation with pooled sera IgE.
# [3] = Der p 1 enzyme activity fluorescence assay (activity measurements and Michaelis-Menten kinetic), Der p 1/aluminium hydroxide adsorption experiment; type: biochemical
# Method: After measuring the enzymatic activity the maximal slope of the progress curve was estimated using the software SoftMax® PRO Life Sciences Edition, Molecular Devices, 2001. After estimating the initial velocity of the experiments they were transferred to Prism and analyzed.
# After adsorption 500 μL was taken out for further analysis and the rest of the mixture was centrifuged for 10 min at 4000 rpm. An elution step was performed for 1 h at 4° C. where the pellet of Mix2 was resuspended in phosphate buffer. […] Con1 was analyzed in the beginning of the experiment and Con2 was analyzed at the end of the 2 hours experiment.
# Different types of enzymatic assays were performed: (i) activity measurements using a fixed substrate concentration to evaluate enzyme activity, and (ii) Michaelis-Menten kinetic to estimate the kinetic parameters Vmax and KM.
# All activity assays were conducted with Tris buffer, pH 7.0, 5 mM DTT, 1 mM EDTA and Boc-QAR-AMC as substrate.
# [4] = Adsorption of Der p 1 to aluminium hydroxide: protein concentration by rocket immune electrophoresis (RIE); type: physicochemical
# Description: This method was used to quantify a given protein by measuring the propagation of protein-antibody complex after electrophoresis in an agarose gel containing antibodies directed against the protein under investigation.
# This method is based on the mobility of protein-antibody complex in an agarose gel during electrophoresis. The antibodies are incorporated into the agarose gel during polymerization and the sample protein is then applied to the wells. The proteins move according to their electrophoretic mobility encountering the antibodies in the gel and forming complexes. These complexes grow in size as the antigen encounters more and more antibodies thereby limiting the migration through the pores of the gel until no further migration occurs. The complexes are visualized by staining the gel. The area delimited by the complexes is proportional to the amount of protein applied to the well. The quantification is performed relative to an internal standard preparation applied in a dilution series on the same gel.
# A glass plate was placed on a leveled surface and cleaned with ethanol. 11 mL agarose was pipetted into a test tube in a 56° C. water bath, 15 μL antibody was added, and the solution was mixed gently by inversion. The agarose was poured onto the glass plate carefully avoiding formation of air bubbles. After gelation a series of wells were punched 1.5 cm from the lower edge of the plate. The plate was placed on the cooled surface of the electrophoresis apparatus. Connecting bridges of 5 layers of filter paper were established and the voltage across the gel adjusted to 2V/cm. 10 μL of sample was applied to the wells. […]
# (§1) After adsorption 500 μL was taken out for further analysis and the rest of the mixture was centrifuged for 10 min at 4000 rpm. […] Con1 was analyzed in the beginning of the experiment and Con2 was analyzed at the end of the 2 hours experiment.
# Another method applied to quantify protein content was RIE. The samples Con1, Con2, Sup, and Elu were evaluated together with three Der p 1 standards (125 ng, 250 ng, and 500 ng). […]
# [5] = Adsorption of Der p 1 to aluminium hydroxide: protein concentration by A280; type: physicochemical
# Description: The aromatic amino acids tryptophan, tyrosine and phenylalanine absorb ultraviolet light. However only tryptophan and tyrosine absorb at 280 nm and tryptophan absorbs 5 times more light than tyrosine. This is due to the […] transition in the indole ring of tryptophan where phenylalanine and tyrosine contains a phenyl group. The absorbance of a protein is linearly correlated with the amount of tryptophan and tyrosine in the protein, the length of the light path and the concentration of protein. This relationship is named Lambert-Beer's law and is given by: A=ε·l·c where A is the absorbance, ε is the molar absorption coefficient for the protein (determined by the amount of tryptophan and tyrosine in the protein) l is the length of the light path and c is the protein concentration. Thus from an absorbance measurement the concentration of protein can be estimated if the molar absorptivity coefficient is known. • Apparatuses • Lambda 800 UV/VIS Spectrometer, PerkinElmer™ • 100-QS, quartz cuvette, path length 1 cm, Hellma® • Materials and Reagents • 50 mM Bis-Tris pH 6.5, Sigma • 50 mM Tris pH 7.0, Sigma • 50 mM phosphate buffer pH 7.0, Merck • 2% Helmanex solution, Hellma Experimental Procedure
# The spectrophotometer was turned on 30 min prior to use for a warm up period. The wavelength of the spectrophotometer was set to 280 nm and the instrument was zeroed to a blank sample containing the matrix of the true sample. The quartz cuvette was washed first with a 2% Helmanex solution and then 4 times with MQ water and afterwards dried with high pressure air. […] After cleaning the cuvette 20 μL of sample was transferred to the cuvette and the absorbance was measured.
# as §1
# The absorbance measurements were converted to protein concentration by the Lambert-Beer's law using a molar absorption coefficient for Der p 1 of […] as shown in table 8a. […]
# [6] = Adsorbed: Der p 1 adsorbed to aluminium hydroxide (mix 2)
# [7] = Control: Der p 1 in the absence of aluminium hydroxide
# [8] = Eluted: Der p 1 eluted from aluminium hydroxide with phosphate buffer
molecule,measurement,setting,value
Cc1cc(=O)oc2cc(N)ccc12 [AMC],Quenching of fluorescence by aluminium hydroxide,[1],no quenching occurred
"CC(C)C[C@H](NC(=O)[C@H]1O[C@@H]1C(=O)O)C(=O)NCCCCN=C(N)N (relative stereo) [E-64, L-trans-epoxysuccinyl-L-leucylamido (4-guanidino) butane]",Inhibition of papain enzyme activity,papain,does not completely inhibit
"Der p 1: major house dust mite allergen, family C1 cysteine protease, purified from D. pteronyssinus extract (protein, UniProt P08176 99-320, looked up) Peptidase 1: TNACSINGNAPAEIDLRQMRTVTPIRMQGGCGSCWAFSGVAATESAYLAYRNQSLDLAEQELVDCASQHGCHGDTIPRGIEYIQHNGVVQESYYRYVAREQSCRRPNAQRFGISNYCQIYPPNVNKIREALAQTHSAIAVIIGIKDLDAFRHYDGRTIIQRDNGYQPNYHAVNIVGYSNAQGVDYWIVRNSWDTNWGDNGYGYFAANIDLMMIEEYPYVVIL","Inhibition of IgE binding, bottom levels of Con1 and Elu",[2]; Der p 1 without aluminium hydroxide (Con1) vs eluted from aluminium hydroxide (Elu),complete inhibition is possible
same,Hill slopes of Con1 and Elu,[2]; one sample t-test p=0.83,not significantly different
same,Vmax in Mix2 relative to Vmax in Mix1,[3],62%
same,Vmax in Sup relative to Vmax in Mix1,[3],30%
same,Km,[3]; [6],56 µM
same,Vmax,[3]; [6],0.15 ng/mL · s
same,"kcat (Vmax/protein concentration, A280)",[3]; [6],0.022 s⁻¹
same,"kcat (Vmax/protein concentration, RIE)",[3]; [6],0.019 s⁻¹
same,Vmax,[3]; [7],0.25 ng/mL · s
same,"kcat (Vmax/protein concentration, A280)",[3]; [7],0.024 s⁻¹
same,"kcat (Vmax/protein concentration, RIE)",[3]; [7],0.018 s⁻¹
same,Km,"[3]; Control: Der p 1 in the absence of aluminium hydroxide, Boc-QAR-AMC, pH 7.0",47 µM
same,Km,[3]; [8],51 µM
same,Vmax,[3]; [8],0.11 ng/mL · s
same,"kcat (Vmax/protein concentration, A280)",[3]; [8],0.025 s⁻¹
same,"kcat (Vmax/protein concentration, RIE)",[3]; [8],0.014 s⁻¹
same,Difference between Vmax of Con1 and Mix1,[3]; Newman Keuls multiple comparison test p>0.05,no significant difference
same,Activity in Mix2 found in Elu,[3]; Vmax,68%
same,Activity of Der p 1 adsorbed to aluminium hydroxide,[3]; activity measurements,66%
same,Adsorbed activity desorbed after elution from Mix2 with phosphate buffer,[3]; activity measurements,67%
same,Activity of non adsorbed Der p 1 in Sup relative to activity in Mix1,"[3]; activity measurements, 100 μM Boc-QAR-AMC",33%
same,Part of the Der p 1 molecules adsorbed to the aluminium hydroxide,[3]; conclusion,60-70%
same,Vmax of Con2 lower than Vmax in Con1,"[3]; end vs beginning of 2 hours experiment, absence of aluminium hydroxide, t-test p-value=0.0024",14%
same,Difference between KM means of the samples,[3]; one-way ANOVA p-value=0.62,no significant difference
same,"Difference in activity between Con1, Con2 and Mix1","[3]; one-way ANOVA p-value=0.76, 2 hours experiment",no significant difference
same,Adsorbed protein eluted from aluminium hydroxide using phosphate buffer,[4],98%
same,Adsorption degree,[4],approximately 56%
same,Protein content in Con1 found in Sup,[4],44%
same,Adsorbed protein eluted from aluminium hydroxide using phosphate buffer,[5],56%
same,Protein content in Con1 found in Sup,[5],32%
same,Adsorption degree,"[5]; 100 μg/mL Der p 1, 1.14 mg/mL aluminium hydroxide, 1 h at 4° C.",approximately 70%
